Literature values as cited in paper PMC5472405.

Molecular target: CXCR4 (Homo sapiens) (UniProt P61073)
Sequence (P61073 whole entry): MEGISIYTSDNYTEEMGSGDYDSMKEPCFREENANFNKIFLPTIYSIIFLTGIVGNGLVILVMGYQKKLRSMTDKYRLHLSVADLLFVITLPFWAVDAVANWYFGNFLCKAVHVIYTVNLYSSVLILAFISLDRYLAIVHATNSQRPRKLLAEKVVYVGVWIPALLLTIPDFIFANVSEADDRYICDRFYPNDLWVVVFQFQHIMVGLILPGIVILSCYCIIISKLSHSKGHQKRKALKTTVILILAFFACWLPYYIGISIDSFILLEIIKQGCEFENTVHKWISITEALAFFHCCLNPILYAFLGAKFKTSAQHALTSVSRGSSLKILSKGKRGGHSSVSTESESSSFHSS

CXCL14, sequence (O95715 35-111): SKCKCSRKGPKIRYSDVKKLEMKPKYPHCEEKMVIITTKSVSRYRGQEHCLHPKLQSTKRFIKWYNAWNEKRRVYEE

CXCL14 (from UniProt O95715)
Kd: 14.7 nM
